Assays:
[1] = Kasai et al. 1989; cited from earlier work
[2] = tested on: Mog. II-E; assay: production of Mog.III or siamenoside from Mog. II-E; format: cell-based, E. coli; conditions: 37° C., 48 hr; FIG. 19
Procedure: II-E. In the experiment, engineered E. coli strains expressing UGT enzymes SEQ ID NO: 72, SEQ ID NO: 54 or SEQ ID NO: 13 were grown in fermentation media containing Mog. II-E at 37° C. for 48 hr. Products were quantified by LCMS/MS with authentic standards of each compound. […] IIE to Mog.III.

[3] = tested on: Mog. IIE or Mog. IE; assay: branched glycosylation reactions by cells expressing UGT enzymes; format: cell-based, E. coli; conditions: Mog. IIE or Mog. IE fed; 37° C., 48 hr; LC-MS/MS
Procedure: Mog. IIE or Mog. IE was fed to cells expressing various UGT enzymes. Reactions were incubated at 37° C. for 48 hr. Products were quantified by LC-MS/MS with authentic standards of each compound. “Indirect” evidence means that consumption of substrate was observed.

[4] = tested on: Mog. IA; assay: bioconversion of Mog. IA into Mog. IIE; format: cell-based, E. coli; conditions: 96-well plates, 37° C., 48 hours; FIG. 18A
Procedure: (§1) IE (FIG. 18B) into Mog. IIE. In the experiment, engineered E. coli chassis strains expressing UGT enzymes, SEQ ID NO: 84, SEQ ID NO: 71, or SEQ ID NO: 33 were incubated in fermentation media containing Mog. IA (FIG. 18A) or Mog. IE (FIG. 18B) in 96-well plates at 37° C. Product formation was examined after 48 hours. Products were measured on LC-MS/MS with authentic standards. The values of Mog. IIE levels in excess of the empty vector control were calculated. […] IE into Mog. IIE.

[5] = tested on: Mog. IE; assay: bioconversion of Mog. IE into Mog. IIE; format: cell-based, E. coli; conditions: 96-well plates, 37° C., 48 hours; FIG. 18B
Procedure: as §1

[6] = tested on: mogrol; assay: bioconversion of mogrol into mogroside intermediates; format: cell-based, E. coli; conditions: 96-well plates, 48 hours, in excess of empty vector control; FIG. 17A
Procedure: The engineered bacterial strains described herein can be used for the glycosylation of a variety of substrates, including but not limited to terpenoid glycosides. In some aspects, the invention identifies UGT enzymes that are active on the mogrol or mogroside scaffolds. FIGS. 17A and B show the bioconversion of mogrol into mogroside intermediates. Engineered E. coli strains (chassis strain) expressing UGT enzymes were incubated in 96-well plates with mogrol. Product formation was examined after 48 hours. Reported values are those in excess of the empty vector control. Products were measured on LC-MS/MS with authentic standards. […] IE and/or Mog. IIE formed.

[7] = tested on: mogrol; assay: primary glycosylation at C3 and C24 hydroxyls of mogrol by cells expressing UGT enzymes; format: cell-based, E. coli; conditions: mogrol fed; 37° C., 48 hrs; LCMS/MS
Procedure: Specifically, mogrol was fed to cells expressing various UGT enzymes. Reactions were incubated at 37° C. for 48 hrs. Products were quantified by LCMS/MS with authentic standards of each compound.

## C[C@H](CC[C@@H](O[C@@H]1O[C@H](CO[C@@H]2O[C@H](CO)[C@@H](O)[C@H](O)[C@H]2O)[C@@H](O)[C@H](O)[C@H]1O[C@@H]1O[C@H](CO)[C@@H](O)[C@H](O)[C@H]1O)C(C)(C)O)[C@H]1CC[C@@]2(C)[C@@H]3CC=C4[C@@H](CC[C@H](O[C@@H]5O[C@H](CO[C@@H]6O[C@H](CO)[C@@H](O)[C@H](O)[C@H]6O)[C@@H](O)[C@H](O)[C@H]5O)C4(C)C)[C@]3(C)[C@H](O)C[C@]12C [mogroside V]
[1]
  sweetening capacity, times that of sucrose: ~ 250 times

B1: SEQ ID NO: 13: Synthetic UGT enzyme (MbUGT1,2.2) (protein)
chain: MATKGSSGMSLAERFWLTLSRSSLVVGRSCVEFEPETVPLLSTLRGKPITFLGLMPPLHEGRREDGEDATVRWLDAQPAKSVVYVALGSEVPLGVEKVHELALGLELAGTRFLWALRKPTGVSDADLLPAGFEERTRGRGVVATRWVPQMSILAHAAVGAFLTHCGWNSTIEGLMFGHPLIMLPIFGDQGPNARLIEAKNAGLQVARNDGDGSFDREGVAAAIRAVAVEEESSKVFQAKAKKLQEIVADMACHERYIDGFIQQLRSYKDDSGYSSSYAAAAGMHVVICPWLAFGHLLPCLDLAQRLASRGHRVSFVSTPRNISRLPPVRPALAPLVAFVALPLPRVEGLPDGAESTNDVPHDRPDMVELHRRAFDGLAAPFSEFLGTACADWVIVDVFHHWAAAAALEHKVPCAMMLLGSAEMIASIADERLEHAETESPAAAGQGRPAAAPTFEVARMKLIR
[2]
  bioconversion of Mog. IIE to Mog.III: able to catalyze bioconversion of Mog. IIE to Mog.III
  production of siamenoside from Mog. II-E: production of substantial amounts of siamenoside
[3]
  C3 1-2: Yes
  C3 1-6: Yes
  C24 1-2: Yes
  C24 1-6: Yes

B2: SEQ ID NO: 71: AtUGT73C3 (Arabidopsis thaliana) (protein, listed as Arabidopsis thaliana)
chain: MATEKTHQFHPSLHFVLFPFMAQGHMIPMIDIARLLAQRGVTITIVTTPHNAARFKNVLNRAIESGLAINILHVKFPYQEFGLPEGKENIDSLDSTELMVPFFKAVNLLEDPVMKLMEEMKPRPSCLISDWCLPYTSIIAKNFNIPKIVFHGMGCFNLLCMHVLRRNLEILENVKSDEEYFLVPSFPDRVEFTKLQLPVKANASGDWKEIMDEMVKAEYTSYGVIVNTFQELEPPYVKDYKEAMDGKVWSIGPVSLCNKAGADKAERGSKAAIDQDECLQWLDSKEEGSVLYVCLGSICNLPLSQLKELGLGLEESRRSFIWVIRGSEKYKELFEWMLESGFEERIKERGLLIKGWAPQVLILSHPSVGGFLTHCGWNSTLEGITSGIPLITWPLFGDQFCNQKLVVQVLKAGVSAGVEEVMKWGEEDKIGVLVDKEGVKKAVEELMGDSDDAKERRRRVKELGELAHKAVEKGGSSHSNITLLLQDIMQLAQFKN
[4]
  bioconversion of Mog.IA into Mog.IIE: able to catalyze bioconversion of Mog.IA into Mog.IIE
[5]
  bioconversion of Mog. IE into Mog. IIE: able to catalyze the bioconversion of Mog. IE into Mog. IIE
[6]
  product formation from mogrol: largely produced Mog.IA from mogrol
[7]
  C3 O-Glucosylation: Yes
  C24 O-Glucosylation: Yes

B3: SEQ ID NO: 33: SgUGT720-269-1 (Siraitia grosvenorii) (protein)
chain: MEDRNAMDMSRIKYRPQPLRPASMVQPRVLLFPFPALGHVKPFLSLAELLSDAGIDVVFLSTEYNHRRISNTEALASRFPTLHFETIPDGLPPNESRALADGPLYFSMREGTKPRFRQLIQSLNDGRWPITCIITDIMLSSPIEVAEEFGIPVIAFCPCSARYLSIHFFIPKLVEEGQIPYADDDPIGEIQGVPLFEGLLRRNHLPGSWSDKSADISFSHGLINQTLAAGRASALILNTFDELEAPFLTHLSSIFNKIYTIGPLHALSKSRLGDSSSSASALSGFWKEDRACMSWLDCQPPRSVVFVSFGSTMKMKADELREFWYGLVSSGKPFLCVLRSDVVSGGEAAELIEQMAEEEGAGGKLGMVVEWAAQEKVLSHPAVGGFLTHCGWNSTVESIAAGVPMMCWPILGDQPSNATWIDRVWKIGVERNNREWDRLTVEKMVRALMEGQKRVEIQRSMEKLSKLANEKVVRGINLHPTISLKKDTPTTSEHPRHEFENMRGMNYEMLVGNAIKSPTLTKK
[5]
  bioconversion of Mog. IE into Mog. IIE: able to catalyze the bioconversion of Mog. IE into Mog. IIE
[6]
  product formation from mogrol: largely produced Mog.IA from mogrol
[7]
  C3 O-Glucosylation: Yes
  C24 O-Glucosylation: Yes

B4: SEQ ID NO: 84: UGT85C1 (Stevia rebaudiana) (protein, listed as Stevia rebaudiana)
chain: MDQMAKIDEKKPHVVFIPFPAQSHIKCMLKLARILHQKGLYITFINTDTNHERLVASGGTQWLENAPGFWFKTVPDGFGSAKDDGVKPTDALRELMDYLKTNFFDLFLDLVLKLEVPATCIICDGCMTFANTIRAAEKLNIPVILFWTMAACGFMAFYQAKVLKEKEIVPVKDETYLTNGYLDMEIDWIPGMKRIRLRDLPEFILATKQNYFAFEFLFETAQLADKVSHMIIHTFEELEASLVSEIKSIFPNVYTIGPLQLLLNKITQKETNNDSYSLWKEEPECVEWLNSKEPNSVVYVNFGSLAVMSLQDLVEFGWGLVNSNHYFLWIIRANLIDGKPAVMPQELKEAMNEKGFVGSWCSQEEVLNHPAVGGFLTHCGWGSIIESLSAGVPMLGWPSIGDQRANCRQMCKEWEVGMEIGKNVKRDEVEKLVRMLMEGLEGERMRKKALEWKKSATLATCCNGSSSLDVEKLANEIKKLSRN
[4]
  bioconversion of Mog.IA into Mog.IIE: able to catalyze bioconversion of Mog.IA into Mog.IIE
[5]
  bioconversion of Mog. IE into Mog. IIE: able to catalyze the bioconversion of Mog. IE into Mog. IIE
[7]
  C3 O-Glucosylation: Yes
  C24 O-Glucosylation: Yes

B5: SEQ ID NO: 72: HvUGT B1 (Hordeum vulgare subsp. Vulgare) (protein)
chain: MAQAESERMRVVMFPWLAHGHINPYLELAKRLIASASGDHHLDVVVHLVSTPANLAPLAHHQTDRLRLVELHLPSLPDLPPALHTTKGLPARLMPVLKRACDLAAPRFGALLDELCPDILVYDFIQPWAPLEAEARGVPAFHFATCGAAATAFFIHCLKTDRPPSAFPFESISLGGVDEDAKYTALVTVREDSTALVAERDRLPLSLERSSGFVAVKSSADIERKYMEYLSQLLGKEIIPTGPLLVDSGGSEEQRDGGRIMRWLDGEEPGSVVFVSFGSEYFMSEHQMAQMARGLELSGVPFLWVVRFPNAEDDARGAARSMPPGFEPELGLVVEGWAPQRRILSHPSCGAFLTHCGWSSVLESMAAGVPMVALPLHIDQPLNANLAVELGAAAARVKQERFGEFTAEEVARAVRAAVKGKEGEAARRRARELQEVVARNNGNDGQIATLLQRMARLCGKDQAVPN
modifications: Hordeum vulgare
[2]
  bioconversion of Mog. IIE to Mog.III: able to catalyze bioconversion of Mog. IIE to Mog.III
[3]
  C3 1-2: No
  C3 1-6: Yes
  C24 1-2: No
  C24 1-6: No

B6: SEQ ID NO: 54: UGT enzyme (Ziziphus jujube) (protein, listed as Ziziphus jujuba)
chain: MMERQRSIKVLMFPWLAHGHISPFLELAKRLTDRNFQIYFCSTPVNLTSVKPKLSQKYSSSIKLVELHLPSLPDLPPHYHTTNGLALNLIPTLKKAFDMSSSSFSTILSTIKPDLLIYDFLQPWAPQLASCMNIPAVNFLSAGASMVSFVLHSIKYNGDDHDDEFLTTELHLSDSMEAKFAEMTESSPDEHIDRAVTCLERSNSLILIKSFRELEGKYLDYLSLSFAKKVVPIGPLVAQDTNPEDDSMDIINWLDKKEKSSTVFVSFGSEYYLTNEEMEEIAYGLELSKVNFIWVVRFPLGQKMAVEEALPKGFLERVGEKGMVVEDWAPQMKILGHSSIGGFVSHCGWSSLMESLKLGVPIIAMPMQLDQPINAKLVERSGVGLEVKRDKNGRIEREYLAKVIREIVVEKARQDIEKKAREMSNIITEKGEEEIDNVVEELAKLCGM
[2]
  bioconversion of Mog. IIE to Mog.III: able to catalyze bioconversion of Mog. IIE to Mog.III
[3]
  C3 1-2: No
  C3 1-6: Yes
  C24 1-2: No
  C24 1-6: Yes

Source: US20260242839A1, “GLYCOSIDE PRODUCT BIOSYNTHESIS AND RECOVERY” (Manus Bio Inc., priority 2023, published 2026)
